Legend:
DU-145 cells [1] = experiment: Wound healing assay; format: cell-based, human; conditions: 12 hours
Procedure: (§1) FIGS. 2(A-E) illustrate EphA activation inhibited DU-145 cell migration. (A) Expression of c-Met is elevated in cell lines derived from more malignant prostate cancer. Total cellular proteins were immunoblotted with anti-human c-Met. An anti-tubulin blot was used as a control for protein loading. (B) In a modified Boyden chamber assay, DU-145 cells were placed in the upper chamber and allowed to migrate to the lower chamber containing indicated reagents. After 8 hours, cells were stained with crystal violet and cells remaining in the upper chamber were removed. Top panel: Cells migrated to the undersides of membrane were counted; six high power fields were counted. Results represent means±S.D. Representative fields were shown in the lower panel. (C) Ephrin-A1-Fc inhibits DU-145 cell migration when HGF/SF was uniformly presented in both sides of membranes. The experiment was carried out as described in A. (D) Inhibition of cell scattering by immobilized ephrin-A1 in a SOIL assay (Method). Ephrin-A1-Fc or control Fc was immobilized on 6-well culture dishes. Freshly confluent DU-145 cells on cover slips were transferred to the coated surfaces. Cells were stimulated with HGF/SF to induce migration off the cover slips to immobilized Fc or ephrin-A1-Fc. […] The wound healing was recorded prior to and 12 hours after the addition of Fc, ephrin-A1-Fc (1 μg/ml) and/or HGF/SF (20 ng/ml). […]

Akt and ERK = Akt and ERK activities in DU145 cells expressing WT or dominant negative EphA2; format: cell-based, human; conditions: DU145 with dominant negative EphA2
Source text: (§2) FIGS. 46(A-D) illustrate A) EphA2 is overexpressed in osseous but not lymph node metastases of human prostate cancer specimens obtained from rapid autopsy. […] DU145 cells were infected with a retroviral vector expressing wild type (WT) or a dominant negative mutant EphA2 where the entire cytoplasmic tail was replaced with GFP. An antibody against the ectodomain of EphA2 was used to determine the expression of endogenous (vector control), WT- and DN-EphA2. D) Upregulation of EphA2 by Ras but not Myc oncogene in NRP152 normal rat prostate epithelial cells.
as §2, with “We observed that” for “FIGS. 46(A-D) illustrate A)”, “autopsy (FIG. 46A).” for “autopsy.”, “DN-EphA2 (FIG. 46C). We further observed upregulation” for “DN-EphA2. D) Upregulation”, “cells (FIG. 46D).” for “cells.”

GFP-PC-3 cells = experiment: PC3 xenograft growth in nude mice; format: in vivo; design: s.c. tumor growth: dose or concentration left out as unconfirmed
Source text: Frozen sections were stained with biotinylated rabbit anti-human Fc, and HRP-conjugated streptoavidin.

[2] = test system: H125, H1975 and SKMES cells; experiment: ERK and AKT phosphorylation in non-small cell lung cancer cells; format: cell-based, human; conditions: 2 ìg/ml, 10 and 30 minutes
Source text: (§3) FIGS. 47(A-C) illustrate A) Expression of β-gal in EphA2 KO mouse lung. Frozen sections were fixed and stained with X-gal and followed by counterstaining with nuclear Fast-Red. B) Expression of EphA2 in the lung from wild-type mice. Lung frozen sections were stained with goat polyclonal antibodies that recognize the ectodomain of EphA2 followed by detection with donkey anti-goat IgG conjugated with FITC. C) EphA kinase activation by ephrin-A1 in H125, H1975 and SKMES human non-small cell lung cancer cells. Cells were stimulated with 2 ìg/ml of ephrin-A1-Fc for 10 and 30 minutes.
as §3, with “FIG. 47A illustrates the expression” for “FIGS. 47(A-C) illustrate A) Expression”, “knockout” for “KO”, “FIG. 47B illustrates expression” for “B) Expression”, “FIG. 47C illustrates” for “C)”

DU-145 cells [3] = experiment: Scattering onto immobilized ligand (SOIL) assay; format: cell-based, human; conditions: 48 hours
Procedure: as §1

B1: ephrin-A1-Fc: ephrin-A1 dimerized by fusion to the heavy chain of human IgG1 (protein)
chain: DRHTVFWNSSNPKFRNEDYTIHVQLNDYVDIICPHYEDHSVADAAMEQYILYLVEHEEYQLCQPQSKDQVRWQCNRPSAKHGPEKLSEKFQRFTPFTLGKEFKEGHSYYYISKPIHQHEDRCLRLKVTVSGKITHSPQAHDNPQEKRLAADDPEVRVLHSIGHS
modifications: left off: a dimerising Fc or GST
notes: ephrin-A1 dimerized by fusion to the heavy chain of human IgG1
wound closing (DU-145 cells [1]; vs Fc): slowed down the speed of wound closing
wound closing with HGF/SF (DU-145 cells [1]; vs HGF/SF and Fc): the wound closing was also delayed
Akt and ERK activities (Akt and ERK): abolished the inhibitory effects
targeting to tumors (GFP-PC-3 cells; frozen sections stained with anti-human Fc): target to GFP-PC-3 tumors
tumor growth after three weeks of treatment (GFP-PC-3 cells; i.p.): lack of effects after three weeks of treatment
s.c. tumor growth (GFP-PC-3 cells; i.p., vs human IgG): inhibited s.c. tumor growth
ERK and AKT phosphorylation [2]: inhibits ERK and AKT phosphorylation
HGF/SF-induced cell migration off cover slips (DU-145 cells [3]): significantly reduced
basal cell migration off cover slips (DU-145 cells [3]): reduced basal levels of cell migration off cover slips

Reference: patent US10434074B2, “Peptide and small molecule agonists of EPHA and uses thereof” (CASE WESTERN RESERVE UNIVERSITY, priority 2004, dated 2019)
